± gives the uncertainty stated by the source.
System: HEK293T
Experiment: plasma membrane surface immunostaining intensity (anti-HA, deep receptor scanning) (arbitrary fluorescence units); higher = higher plasma membrane expression

| Sequence | plasma membrane surface immunostaining intensity (GPCR class: A) | plasma membrane surface immunostaining intensity (GPCR class: A (Olfactory)) | other results |
| --- | --- | --- | --- |
| MLGPAVLGLSLWALLHPGTGAPLCLSQQLRMKGDYVLGGLFPLGEAEEAGLRSRTRPSSPVCTRFSSNGLLWALAMKMAVEEINNKSDLLPGLRLGYDLFDTCSEPVVAMKPSLMFLAKAGSRDIAAYCNYTQYQPRVLAVIGPHSSELAMVTGKFFSFFLMPQVSYGASMELLSARETFPSFFRTVPSDRVQLTAAAELLQEFGWNWVAALGSDDEYGRQGLSIFSALAAARGICIAHEGLVPLPRADDSRLGKVQDVLHQVNQSSVQVVLLFASVHAAHALFNYSISSRLSPKVWVASEAWLTSDLVMGLPGMAQMGTVLGFLQRGAQLHEFPQYVKTHLALATDPAFCSALGEREQGLEEDVVGQRCPQCDCITLQNVSAGLNHHQTFSVYAAVYSVAQALHNTLQCNASGCPAQDPVKPWQLLENMYNLTFHVGGLPLRFDSSGNVDMEYDLKLWVWQGSVPRLHDVGRFNGSLRTERLKIRWHTSDNQKPVSRCSRQCQEGQVRRVKGFHSCCYDCVDCEAGSYRQNPDDIACTFCGQDEWSPERSTRCFRRRSRFLAWGEPAVLLLLLLLSLALGLVLAALGLFVHHRDSPLVQASGGPLACFGLVCLGLVCLSVLLFPGQPSPARCLAQQPLSHLPLTGCLSTLFLQAAEIFVESELPLSWADRLSGCLRGPWAWLVVLLAMLVEVALCTWYLVAFPPEVVTDWHMLPTEALVHCRTRSWVSFGLAHATNATLAFLCFLGTFLVRSQPGCYNRARGLTFAMLAYFITWVSFVPLLANVQVVLRPAVQMGALLLCVLGILAAFHLPRCYLLMRQPGLNTPEFFLGGGPGDAQGQNDGNTGNQGKHE [TAS1R3] |  |  | plasma membrane surface immunostaining intensity (GPCR class: Taste): 122 ± 9.1 |
| MSGESMNFSDVFDSSEDYFVSVNTSYYSVDSEMLLCSLQEVRQFSRLFVPIAYSLICVFGLLGNILVVITFAFYKKARSMTDVYLLNMAIADILFVLTLPFWAVSHATGAWVFSNATCKLLKGIYAINFNCGMLLLTCISMDRYIAIVQATKSFRLRSRTLPRSKIICLVVWGLSVIISSSTFVFNQKYNTQGSDVCEPKYQTVSEPIRWKLLMLGLELLFGFFIPLMFMIFCYTFIVKTLVQAQNSKRHKAIRVIIAVVLVFLACQIPHNMVLLVTAANLGKMNRSCQSEKLIGYTKTVTEVLAFLHCCLNPVLYAFIGQKFRNYFLKILKDLWCVRRKYKSSGFSCAGRYSENISRQTSETADNDNASSFTM [CCR6] | 418 ± 33 |  |  |
| MGNWTAAVTEFVLLGFSLSREVELLLLVLLLPTFLLTLLGNLLIISTVLSCSRLHTPMYFFLCNLSILDILFTSVISPKVLANLGSRDKTISFAGCITQCYFYFFLGTVEFLLLTVMSYDRYATICCPLRYTTIMRPSVCIGTVVFSWVGGFLSVLFPTILISQLPFCGSNIINHFFCDSGPLLALACADTTAIELMDFMLSSMVILCCIVLVAYSYTYIILTIVRIPSASGRKKAFNTCASHLTIVIISSGITVFIYVTPSQKEYLEINKIPLVLSSVVTPFLNPFIYTLRNDTVQGVLRDVWVRVRGVFEKRMRAVLRSRLSSNKDHQGRACSSPPCVYSVKLQC [OR6J1] |  | 279 ± 110 |  |
| MGDWNNSDAVEPIFILRGFPGLEYVHSWLSILFCLAYLVAFMGNVTILSVIWIESSLHQPMYYFISILAVNDLGMSLSTLPTMLAVLWLDAPEIQASACYAQLFFIHTFTFLESSVLLAMAFDRFVAICHPLHYPTILTNSVIGKIGLACLLRSLGVVLPTPLLLRHYHYCHGNALSHAFCLHQDVLRLSCTDARTNSIYGLCVVIATLGVDSIFILLSYVLILNTVLDIASREEQLKALNTCVSHICVVLIFFVPVIGVSMVHRFGKHLSPIVHILMADIYLLLPPVLNPIVYSVRTKQIRLGILHKFVLRRRF [OR51L1] |  | 274 ± 150 |  |
| MTSTCTNSTRESNSSHTCMPLSKMPISLAHGIIRSTVLVIFLAASFVGNIVLALVLQRKPQLLQVTNRFIFNLLVTDLLQISLVAPWVVATSVPLFWPLNSHFCTALVSLTHLFAFASVNTIVVVSVDRYLSIIHPLSYPSKMTQRRGYLLLYGTWIVAILQSTPPLYGWGQAAFDERNALCSMIWGASPSYTILSVVSFIVIPLIVMIACYSVVFCAARRQHALLYNVKRHSLEVRVKDCVENEDEEGAEKKEEFQDESEFRRQHEGEVKAKEGRMEAKDGSLKAKEGSTGTSESSVEARGSEEVRESSTVASDGSMEGKEGSTKVEENSMKADKGRTEVNQCSIDLGEDDMEFGEDDINFSEDDVEAVNIPESLPPSRRNSNSNPPLPRCYQCKAAKVIFIIIFSYVLSLGPYCFLAVLAVWVDVETQVPQWVITIIIWLFFLQCCIHPYVYGYMHKTIKKEIQDMLKKFFCKEKPPKEDSHPDLPGTEGGTEGKIVPSYDSATFP [GPR101] | 3010 ± 110 |  |  |
| MRLSAGPDAGPSGNSSPWWPLATGAGNTSREAEALGEGNGPPRDVRNEELAKLEIAVLAVTFAVAVLGNSSVLLALHRTPRKTSRMHLFIRHLSLADLAVAFFQVLPQMCWDITYRFRGPDWLCRVVKHLQVFGMFASAYMLVVMTADRYIAVCHPLKTLQQPARRSRLMIAAAWVLSFVLSTPQYFVFSMIEVNNVTKARDCWATFIQPWGSRAYVTWMTGGIFVAPVVILGTCYGFICYNIWCNVRGKTASRQSKGAEQAGVAFQKGFLLAPCVSSVKSISRAKIRTVKMTFVIVTAYIVCWAPFFIIQMWSVWDPMSVWTESENPTITITALLGSLNSCCNPWIYMFFSGHLLQDCVQSFPCCQNMKEKFNKEDTDSMSRRQTFYSNNRSPTNSTGMWKDSPKSSKSIKFIPVST [AVPR1A] | 497 ± 41 |  |  |
| MAWENQTFNSDFILLGIFNHSPPHTFLFFLVLGIFLVAFMGNSVMVLLIYLDTQLHTPMYFLLSQLSLMDLMLICTTVPKMAFNYLSGSKSISMAGCVTQIFFYISLSGSECFLLAVMAYDRYIAICHPLRYTNLMNPKICGLMATFSWILGSTDGIIDAVATFSFSFCGSREIAHFFCEFPSLLILSCNDTSIFEEVIFICCIVMLVFPVAIIIASYARVILAVIHMGSGEGRCKAFTTCSSHLMVVGMYYGAALFMYIRPTSDHSPTQDKMVSVFYTILTPMLNPLIYSLRNKEVTRAFMKILGKGKSESELPHKLYVLLFAKFFFLISIFFYDVKILALIMYIA [OR2M2] |  | 134 ± 22 |  |
| MPANFTEGSFDSSGTGQTLDSSPVACTETVTFTEVVEGKEWGSFYYSFKTEQLITLWVLFVFTIVGNSVVLFSTWRRKKKSRMTFFVTQLAITDSFTGLVNILTDINWRFTGDFTAPDLVCRVVRYLQVVLLYASTYVLVSLSIDRYHAIVYPMKFLQGEKQARVLIVIAWSLSFLFSIPTLIIFGKRTLSNGEVQCWALWPDDSYWTPYMTIVAFLVYFIPLTIISIMYGIVIRTIWIKSKTYETVISNCSDGKLCSSYNRGLISKAKIKAIKYSIIIILAFICCWSPYFLFDILDNFNLLPDTQERFYASVIIQNLPALNSAINPLIYCVFSSSISFPCREQRSQDSRMTFRERTERHEMQILSKPEFI [NPSR1] | 457 ± 42 |  |  |
| MDLKNGSLVTEFILLGFFGRWELQIFFFVTFSLIYGATVMGNILIMVTVTCRSTLHSPLYFLLGNLSFLDMCLSTATTPKMIIDLLTDHKTISVWGCVTQMFFMHFFGGAEMTLLIIMAFDRYVAICKPLHYRTIMSHKLLKGFAILSWIIGFLHSISQIVLTMNLPFCGHNVINNIFCDLPLVIKLACIETYTLELFVIADSGLLSFTCFILLLVSYIVILVSVPKKSSHGLSKALSTLSAHIIVVTLFFGPCIFIYVWPFSSLASNKTLAVFYTVITPLLNPSIYTLRNKKMQEAIRKLRFQYVSSAQNF [OR4L1] |  | 549 ± 220 |  |
| MEAANESSEGISFVLLGLTTSPGQQRPLFVLFLLLYVASLLGNGLIVAAIQASPALHAPMYFLLAHLSFADLCFASVTVPKMLANLLAHDHSISLAGCLTQMYFFFALGVTDSCLLAAMAYDCYVAIRHPLPYATRMSRAMCAALVGMAWLVSHVHSLLYILLMARLSFCASHQVPHFFCDHQPLLRLSCSDTHHIQLLIFTEGAAVVVTPFLLILASYGAIAAAVLQLPSASGRLRAVSTCGSHLAVVSLFYGTVIAVYFQATSRREAEWGRVATVMYTVVTPMLNPIIYSLWNRDVQGALRALLIGRRISASDS [OR1K1] |  | 223 ± 69 |  |
| MQAALTAFFVLLFSLLSLLGIAANGFIVLVLGREWLRYGRLLPLDMILISLGASRFCLQLVGTVHNFYYSAQKVEYSGGLGRQFFHLHWHFLNSATFWFCSWLSVLFCVKIANITHSTFLWLKWRFPGWVPWLLLGSVLISFIITLLFFWVNYPVYQEFLIRKFSGNMTYKWNTRIETYYFPSLKLVIWSIPFSVFLVSIMLLINSLRRHTQRMQHNGHSLQDPSTQAHTRALKSLISFLILYALSFLSLIIDAAKFISMQNDFYWPWQIAVYLCISVHPFILIFSNLKLRSVFSQLLLLARGFWVA [TAS2R41] |  |  | plasma membrane surface immunostaining intensity (GPCR class: Taste): 129 ± 20 |

Source: the supplement of paper PMC12458215
